{"source": "patent US12098186", "about": "(NATIONAL TECHNOLOGY AND ENGINEERING SOLUTIONS OF SANDIA, dated 2024)", "binders": {"B1": {"name": "SP1B4-U biparatopic nanobody construct (SP1B4 and U nanobodies on heterodimeric human IgG1 Fc) (bispecific antibody, V domains shown, not shown: a dimerising Fc or GST)", "V domain 1": "EVQLQASGGGFVQPGGSLRLSCAASGRAFGIYRMGWFRQAPGKEREFVSAISGGDAGHTRYADSVKGRFTISRDNSKNTVYLQMNSLRAEDTATYYCAYWDYNGVVPFFKYWGQGTQVTVSS", "V domain 2": "QVQLVESGGGLVQPGGSLRLSCAASGFTLDYYAIGWFRQAPGKEREGVSCISSSGGSTHFADSVKGRFTISRDNAKNTVYLQMNSLIPEDTAVYYCAAQSGSYYWCGSDWHEYEYWGQGTQVTVSS"}, "B2": {"name": "SP3H4-U biparatopic nanobody construct (SP3H4 and U nanobodies on heterodimeric human IgG1 Fc) (bispecific antibody, V domains shown, not shown: a dimerising Fc or GST)", "V domain 1": "EVQLQASGGGFVQPGGSLRLSCAASGTAYGWSRMGWFRQAPGKEREFVSAISRASAGYAQYADSVKGRFTISRDNSKNTVYLQMNSLRAEDTATYYCAFPLHDQGEPYGWYWGQGTQVTVSS", "V domain 2": "B1 V domain 2"}, "B3": {"name": "SP1D9-U biparatopic nanobody construct (SP1D9 and U nanobodies on heterodimeric human IgG1 Fc) (bispecific antibody, V domains shown, not shown: a dimerising Fc or GST)", "V domain 1": "EVQLQASGGGFVQPGGSLRLSCAASGRYDSYVRMGWFRQAPGKEREFVSAISGGGDKSTWYADSVKGRFTISRDNSKNTVYLQMNSLRAEDTATYYCANAQLGPAYDKIGYWGQGTQVTVSS", "V domain 2": "B1 V domain 2"}}, "key": {"[1]": {"target": "T1, SARS-CoV-2 receptor-binding domain (RBD) of the spike protein (SARS-CoV-2, UniProt P0DTC2 319-541)"}, "[2]": {"target": "T1, SARS-CoV-2 receptor-binding domain …", "remark": "listed apart in the source"}, "[3]": {"target": "T1, SARS-CoV-2 receptor-binding domain …", "assay": "cell-based or functional assay"}, "[4]": {"target": "T1, SARS-CoV-2 receptor-binding domain …", "remark": "listed apart in the source"}, "[5]": {"target": "T1, SARS-CoV-2 receptor-binding domain …", "remark": "listed apart in the source"}}, "note": "Where two headings read alike, the source gives them in different places.", "data": [{"binder": "B1", "values": [{"measurement": "Kd", "setting": "[1]", "result": 2.2, "unit": "nM"}, {"measurement": "Kd", "setting": "[2]", "result": 2.2, "unit": "nM"}, {"measurement": "Neutralization EC50", "setting": "[3]", "result": 0.025, "unit": "nM"}]}, {"binder": "B2", "values": [{"measurement": "Kd", "setting": "[1]", "result": 0.79, "unit": "nM"}, {"measurement": "Kd", "setting": "[4]", "result": 0.79, "unit": "nM"}, {"measurement": "Neutralization EC50", "setting": "[3]", "result": 0.023, "unit": "nM"}]}, {"binder": "B3", "values": [{"measurement": "Kd", "setting": "[5]", "result": 2, "unit": "nM"}]}]}
